The supplement of paper PMC5998384

Columns and labels:
HeLa Kyoto [1] = test: melting temperature (median over replicates), in situ; higher = more thermally stable
HeLa Kyoto [2] = test: thermal stability score vs G1/S (z-score of summed log2 fold changes over temperatures); higher = more thermally stable than in G1/S
HeLa Kyoto [3] = test: solubility change mitosis vs G1/S (difference of NP-40 vs SDS log2 ratios) (log2 ratio difference); higher = more soluble in mitosis
HeLa Kyoto [4] = test: solubility in G1/S (NP-40 vs SDS abundance) (log2 ratio); higher = more soluble; conditions: cell cycle stage: G1/S
[5] = cell cycle stage: early G1 (4.5 h after nocodazole release)
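For melting temperature (median over replicates), in situ in this document: HeLa Kyoto cells synchronized by double thymidine or nocodazole block, proteins quantified by TMT10plex mass spectrometry, three independent biological replicates.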
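For solubility change mitosis vs G1/S (difference of NP-40 vs SDS log2 ratios) in this document: synchronized HeLa Kyoto cells (double thymidine block for G1/S, nocodazole release for mitosis), protein amounts in NP-40 versus SDS lysates quantified by mass spectrometry, three biological replicates.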
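For solubility in G1/S (NP-40 vs SDS abundance) in this document: HeLa Kyoto cells arrested at G1/S by double thymidine block, proteins quantified by TMT10plex mass spectrometry in mild NP-40 versus SDS extracts, three biological replicates.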
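For thermal stability score vs G1/S (z-score of summed log2 fold changes over temperatures) in this document: synchronized HeLa Kyoto cells, proteins quantified by TMT10plex mass spectrometry, three biological replicates, mitosis taken 0.5 h after nocodazole release, G1/S directly after double thymidine block.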

| Substance | melting temperature (HeLa Kyoto [1]; cell cycle stage: G1/S) [°C] | melting temperature (HeLa Kyoto [1]; cell cycle stage: mitosis) [°C] | thermal stability score (HeLa Kyoto [2]; [5]) | thermal stability score (HeLa Kyoto [2]; cell cycle stage: mitosis) | solubility change mitosis (log2) (HeLa Kyoto [3]) | solubility in G1/S (log2) (HeLa Kyoto [4]) |
| --- | --- | --- | --- | --- | --- | --- |
| MPKPINVRVTTMDAELEFAIQPNTTGKQLFDQVVKTVGLREVWFFGLQYVDSKGYSTWLKLNKKVTQQDVKKENPLQFKFRAKFFPEDVSEELIQEITQRLFFLQVKEAILNDEIYCPPETAVLLASYAVQAKYGDYNKEIHKPGYLANDRLLPQRVLEQHKLTKEQWEERIQNWHEEHRGMLREDSMMEYLKIAQDLEMYGVNYFEIKNKKGTELWLGVDALGLNIYEHDDKLTPKIGFPWSEIRNISFNDKKFVIKPIDKKAPDFVFYAPRLRINKRILALCMGNHELYMRRRKPDTIEVQQMKAQAREEKHQKQLERAQLENEKKKREIAEKEKERIEREKEELMERLKQIEEQTIKAQKELEEQTRKALELDQERKRAKEEAERLEKERRAAEEAKSAIAKQAADQMKNQEQLAAELAEFTAKIALLEEAKKKKEEEATEWQHKAFAAQEDLEKTKEELKTVMSAPPPPPPPPVIPPTENEHDEHDENNAEASAELSNEGVMNHRSEEERVTETQKNERVKKQLQALSSELAQARDETKKTQNDVLHAENVKAGRDKYKTLRQIRQGNTKQRIDEFEAM [RDX] | 57.1 | 56.4 | 0.702 | 0.805 | 0.0339 | 0.0601 |
| CLTC | 51.4 | 50.6 | -1.37 | 1.15 | -0.171 | -0.168 |
| MIAHKQKKTKKKRAWASGQLSTDITTSEMGLKSLSSNSIFDPDYIKELVNDIRKFSHMLLYLKEAIFSDCFKEVIHIRLEELLRVLKSIMNKHQNLNSVDLQNAAEMLTAKVKAVNFTEVNEENKNDLFQEVFSSIETLAFTFGNILTNFLMGDVGNDSLLRLPVSRETKSFENVSVESVDSSSEKGNFSPLELDNVLLKNTDSIELALSYAKTWSKYTKNIVSWVEKKLNLELESTRNMVKLAEATRTNIGIQEFMPLQSLFTNALLNDIESSHLLQQTIAALQANKFVQPLLGRKNEMEKQRKEIKELWKQEQNKMLEAENALKKAKLLCMQRQDEYEKAKSSMFRAEEEHLSSSGGLAKNLNKQLEKKRRLEEEALQKVEEANELYKVCVTNVEERRNDLENTKREILAQLRTLVFQCDLTLKAVTVNLFHMQHLQAASLADSLQSLCDSAKLYDPGQEYSEFVKATNSTEEEKVDGNVNKHLNSSQPSGFGPANSLEDVVRLPDSSNKIEEDRCSNSADITGPSFIRSWTFGMFSDSESTGGSSESRSLDSESISPGDFHRKLPRTPSSGTMSSADDLDEREPPSPSETGPNSLGTFKKTLMSKAALTHKFRKLRSPTKCRDCEGIVVFQGVECEECLLVCHRKCLENLVIICGHQKLPGKIHLFGAEFTQVAKKEPDGIPFILKICASEIENRALCLQGIYRVCGNKIKTEKLCQALENGMHLVDISEFSSHDICDVLKLYLRQLPEPFILFRLYKEFIDLAKEIQHVNEEQETKKNSLEDKKWPNMCIEINRILLKSKDLLRQLPASNFNSLHFLIVHLKRVVDHAEENKMNSKNLGVIFGPSLIRPRPTTAPITISSLAEYSNQARLVEFLITYSQKIFDGSLQPQDVMCSIGVVDQGCFPKPLLSPEERDIERSMKSLFFSSKEDIHTSESESKIFERATSFEESERKQNALGKCDACLSDKAQLLLDQEAESASQKIEDGKTPKPLSLKSDRSTNNVERHTPRTKIRPVSLPVDRLLLASPPNERNGRNMGNVNLDKFCKNPAFEGVNRKDAATTVCSKFNGFDQQTLQKIQDKQYEQNSLTAKTTMIMPSALQEKGVTTSLQISGDHSINATQPSKPYAEPVRSVREASERRSSDSYPLAPVRAPRTLQPQHWTTFYKPHAPIISIRGNEEKPASPSAAVPPGTDHDPHGLVVKSMPDPDKASACPGQATGQPKEDSEELGLPDVNPMCQRPRLKRMQQFEDLEGEIPQFV [ARHGAP29] | 50.5 | 51.1 | 1 | 1.36 | -0.0634 | -0.185 |
| MPFLELDTNLPANRVPAGLEKRLCAAAASILGKPADRVNVTVRPGLAMALSGSTEPCAQLSISSIGVVGTAEDNRSHSAHFFEFLTKELALGQDRILIRFFPLESWQIGKIGTVMTFL [DDT] | 56.1 | 57.4 | -2.25 | -2.27 | -0.0844 | 0.57 |
| MENSTTTISREELEELQEAFNKIDIDNSGYVSDYELQDLFKEASLPLPGYKVREIVEKILSVADSNKDGKISFEEFVSLMQELKSKDISKTFRKIINKREGITAIGGTSTISSEGTQHSYSEEEKVAFVNWINKALENDPDCKHLIPMNPNDDSLFKSLADGILLCKMINLSEPDTIDERAINKKKLTPFTISENLNLALNSASAIGCTVVNIGASDLKEGKPHLVLGLLWQIIKVGLFADIEISRNEALIALLNEGEELEELMKLSPEELLLRWVNYHLTNAGWHTISNFSQDIKDSRAYFHLLNQIAPKGGEDGPAIAIDLSGINETNDLKRAGLMLQEADKLGCKQFVTPADVVSGNPKLNLAFVANLFNTYPCLHKPNNNDIDMNLLEGESKEERTFRNWMNSLGVNPYINHLYSDLADALVIFQLYEMIRVPVNWSHVNKPPYPALGGNMKKIENCNYAVELGKNKAKFSLVGIAGQDLNEGNSTLTLALVWQLMRRYTLNVLSDLGEGEKVNDEIIIKWVNQTLKSANKKTSISSFKDKSISTSLPVLDLIDAIAPNAVRQEMIRRENLSDEDKLNNAKYAISVARKIGARIYALPDDLVEVKPKMVMTVFACLMGKGLNRIK [PLS1] | 52.6 | 53.7 | 0.863 | 0.264 | -0.0585 | 0.301 |
| MSYDRAITVFSPDGHLFQVEYAQEAVKKGSTAVGVRGRDIVVLGVEKKSVAKLQDERTVRKICALDDNVCMAFAGLTADARIVINRARVECQSHRLTVEDPVTVEYITRYIASLKQRYTQSNGRRPFGISALIVGFDFDGTPRLYQTDPSGTYHAWKANAIGRGAKSVREFLEKNYTDEAIETDDLTIKLVIKALLEVVQSGGKNIELAVMRRDQSLKILNPEEIEKYVAEIEKEKEENEKKKQKKAS [PSMA7] | 59 | 62.2 | -1.05 | -2.15 | -0.0151 | 0.332 |
| MSSPQAPEDGQGCGDRGDPPGDLRSVLVTTVLNLEPLDEDLFRGRHYWVPAKRLFGGQIVGQALVAAAKSVSEDVHVHSLHCYFVRAGDPKLPVLYQVERTRTGSSFSVRSVKAVQHGKPIFICQASFQQAQPSPMQHQFSMPTVPPPEELLDCETLIDQYLRDPNLQKRYPLALNRIAAQEVPIEIKPVNPSPLSQLQRMEPKQMFWVRARGYIGEGDMKMHCCVAAYISDYAFLGTALLPHQWQHKVHFMVSLDHSMWFHAPFRADHWMLYECESPWAGGSRGLVHGRLWRQDGVLAVTCAQEGVIRVKPQVSESKL [ACOT8] | 51.9 | 53.8 | 0.114 | -0.515 | -0.588 | -0.0523 |
| MGLTVSALFSRIFGKKQMRILMVGLDAAGKTTILYKLKLGEIVTTIPTIGFNVETVEYKNICFTVWDVGGQDKIRPLWRHYFQNTQGLIFVVDSNDRERVQESADELQKMLQEDELRDAVLLVFANKQDMPNAMPVSELTDKLGLQHLRSRTWYVQATCATQGTGLYDGLDWLSHELSKR [ARF5] | 55.4 | 55.9 | 1.02 | 1.14 | -0.212 | -0.196 |
| BTAF1 | 50 | 50.1 | 0.553 | 1.71 | -0.118 | -0.142 |
| MALGLKCFRMVHPTFRNYLAASIRPVSEVTLKTVHERQHGHRQYMAYSAVPVRHFATKKAKAKGKGQSQTRVNINAALVEDIINLEEVNEEMKSVIEALKDNFNKTLNIRTSPGSLDKIAVVTADGKLALNQISQISMKSPQLILVNMASFPECTAAAIKAIRESGMNLNPEVEGTLIRVPIPQVTREHREMLVKLAKQNTNKAKDSLRKVRTNSMNKLKKSKDTVSEDTIRLIEKQISQMADDTVAELDRHLAVKTKELLG [MRRF] | 50.1 | 51.3 | -2.43 | -2.36 | 0.328 | 0.605 |
| MAAAAGAAAAAAAEGEAPAEMGALLLEKETRGATERVHGSLGDTPRSEETLPKATPDSLEPAGPSSPASVTVTVGDEGADTPVGATPLIGDESENLEGDGDLRGGRILLGHATKSFPSSPSKGGSCPSRAKMSMTGAGKSPPSVQSLAMRLLSMPGAQGAAAAGSEPPPATTSPEGQPKVHRARKTMSKPGNGQPPVPEKRPPEIQHFRMSDDVHSLGKVTSDLAKRRKLNSGGGLSEELGSARRSGEVTLTKGDPGSLEEWETVVGDDFSLYYDSYSVDERVDSDSKSEVEALTEQLSEEEEEEEEEEEEEEEEEEEEEEEEDEESGNQSDRSGSSGRRKAKKKWRKDSPWVKPSRKRRKREPPRAKEPRGVNGVGSSGPSEYMEVPLGSLELPSEGTLSPNHAGVSNDTSSLETERGFEELPLCSCRMEAPKIDRISERAGHKCMATESVDGELSGCNAAILKRETMRPSSRVALMVLCETHRARMVKHHCCPGCGYFCTAGTFLECHPDFRVAHRFHKACVSQLNGMVFCPHCGEDASEAQEVTIPRGDGVTPPAGTAAPAPPPLSQDVPGRADTSQPSARMRGHGEPRRPPCDPLADTIDSSGPSLTLPNGGCLSAVGLPLGPGREALEKALVIQESERRKKLRFHPRQLYLSVKQGELQKVILMLLDNLDPNFQSDQQSKRTPLHAAAQKGSVEICHVLLQAGANINAVDKQQRTPLMEAVVNNHLEVARYMVQRGGCVYSKEEDGSTCLHHAAKIGNLEMVSLLLSTGQVDVNAQDSGGWTPIIWAAEHKHIEVIRMLLTRGADVTLTDNEENICLHWASFTGSAAIAEVLLNARCDLHAVNYHGDTPLHIAARESYHDCVLLFLSRGANPELRNKEGDTAWDLTPERSDVWFALQLNRKLRLGVGNRAIRTEKIICRDVARGYENVPIPCVNGVDGEPCPEDYKYISENCETSTMNIDRNITHLQHCTCVDDCSSSNCLCGQLSIRCWYDKDGRLLQEFNKIEPPLIFECNQACSCWRNCKNRVVQSGIKVRLQLYRTAKMGWGVRALQTIPQGTFICEYVGELISDAEADVREDDSYLFDLDNKDGEVYCIDARYYGNISRFINHLCDPNIIPVRVFMLHQDLRFPRIAFFSSRDIRTGEELGFDYGDRFWDIKSKYFTCQCGSEKCKHSAEAIALEQSRLARLDPHPELLPELGSLPPVNT [EHMT2] | 50.1 | 49.9 | 1.11 | 1.87 | 0.189 | -0.563 |
| MPRPGSAQRWAAVAGRWGCRLLALLLLVPGPGGASEITFELPDNAKQCFYEDIAQGTKCTLEFQVITGGHYDVDCRLEDPDGKVLYKEMKKQYDSFTFTASKNGTYKFCFSNEFSTFTHKTVYFDFQVGEDPPLFPSENRVSALTQMESACVSIHEALKSVIDYQTHFRLREAQGRSRAEDLNTRVAYWSVGEALILLVVSIGQVFLLKSFFSDKRTTTTRVGS [TMED7] | 57.2 | 56.4 | 2.43 | 0.528 | -0.174 | -0.0739 |
| MLCVGRLGGLGARAAALPPRRAGRGSLEAGIRARRVSTSWSPVGAAFNVKPQGSRLDLFGERRGLFGVPELSAPEGFHIAQEKALRKTELLVDRACSTPPGPQTVLIFDELSDSLCRVADLADFVKIAHPEPAFREAAEEACRSIGTMVEKLNTNVDLYQSLQKLLADKKLVDSLDPETRRVAELFMFDFEISGIHLDKEKRKRAVDLNVKILDLSSTFLMGTNFPNKIEKHLLPEHIRRNFTSAGDHIIIDGLHAESPDDLVREAAYKIFLYPNAGQLKCLEELLSSRDLLAKLVGYSTFSHRALQGTIAKNPETVMQFLEKLSDKLSERTLKDFEMIRGMKMKLNPQNSEVMPWDPPYYSGVIRAERYNIEPSLYCPFFSLGACMEGLNILLNRLLGISLYAEQPAKGEVWSEDVRKLAVVHESEGLLGYIYCDFFQRADKPHQDCHFTIRGGRLKEDGDYQLPVVVLMLNLPRSSRSSPTLLTPSMMENLFHEMGHAMHSMLGRTRYQHVTGTRCPTDFAEVPSILMEYFANDYRVVNQFARHYQTGQPLPKNMVSRLCESKKVCAAADMQLQVFYATLDQIYHGKHPLRNSTTDILKETQEKFYGLPYVPNTAWQLRFSHLVGYGARYYSYLMSRAVASMVWKECFLQDPFNRAAGERYRREMLAHGGGREPMLMVEGMLQKCPSVDDFVSALVSDLDLDFETFLMDSE [MIPEP] | 51.2 | 50.4 | 0.154 | 0.0672 | -0.0647 | -0.0439 |
